Source: the nanobody polyreactivity screen of Harvey et al. (2022)

Assay: yeast display, Sf9 membrane polyspecificity reagent, FACS + sequencing; frameworks hold sequencing errors
In short: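 A synthetic nanobody library was expressed on Saccharomyces cerevisiae BJ5465 by galactose induction for 36–48 hours. The library was stained for 1 hour at 4 °C with 10% biotinylated, detergent-solubilized Sf9 membrane reagent and enriched with streptavidin microbeads before FACS. Low and high (top ~1%) gates were set on anti-HA fluorescence for expression and streptavidin fluorescence for reagent binding, and each polyreactivity label reflects the gate of origin.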

Sequence	polyreactivity (PSR sort gate)
QVQLVESGGGLVQAGGSLRLSCAASGYTFYYAMGWYRQAPGKERELVAAISAGGGRTYYADSVKGRFTISRDNAKNTDYLQMNSLKPEDTAVYYCNRVYRLTAYGYDYWGQGTQVTVSS	high polyreactivity
QVQLVESGGGLVQAGGSLRLSCAASGSTFYRNAMGAYRQAPGKDREFVAAISFRGGGTYADSVKGRCTISRDNANNTVYLQMNSLKPEDTAVYYCAADHLSYRRRYEYWGQGTQVTVSS	low polyreactivity
QVQLPESGGGLVQAGGSLRLICAASGYISTFSSEMGWYRQAPGKERELVASIAPGCTTSYADSVKGRFTISRDNAKNTVYLQMNSLKPEDTAVYYCGVDYTVPASFGYWGQGTQVTVSS	high polyreactivity
QVQLVESGGGLVQAGGSLRLSCAASGFTFFWYAMGWSRQAPGKERELVAGITYRGGSTYYADSVKGRFTISRDNAKNTVYLQMNSLKPEDTAVYYCNADVVTKHISAWWDRYYRRYYYWGQGTQVTVSS	low polyreactivity
QVQLVESGGGLVQAGGSLRLSCAASGRIFRYYAMGWYRQAPGKERELVAAISYSTGGTYYADSVKGRFTISRDNAKNTVYLQMNSLIPEDTAVYYCAARGPLDRYGYWGQGTQVTVSS	high polyreactivity
QVQLVESGGGLVQAGGSLRLSCAASGRTFGVYVKGWYRQAPGKERELVAAIDDSGGSTYYADSVKGRFTISRDNAKNTVYLQMNSLKPEDTAVYYCAKTKTQYLTSEIRFDYWGQGTQVTVSS	low polyreactivity
QVQLVESGGGLVQAGGSLRLSCAASGRTFQVYAMGWYRQAPGKERELVAAISLTGGGTYYADSVKGRFTISRDNAKNTVYLQMNSLKPEDTEVYYCAVRRRTHLGFLYEYWGQGTQVTVSS	high polyreactivity
QVKLEESAGGLVQSGGSLRISCAASGSTLVSNAMGWYRQAPGQERELVADNSLSGGSTYYADSVKGRFTISRDYAKNTVYLQMNSLKPEDTEVYYCARVAPSSGVRWYYYWGQGTQVTVSS	high polyreactivity
QVQHVESGGGLVQAGGSLRLSCAASGRIFVRNAMGWYIQAPGKERELVAAITSGASTYYADSVKGRFTISRDNAKYTVYFQMYSVKPEDTAVSYCAAQAVIASWWTVDYYYWGQGTQVTVSS	high polyreactivity
QVQLVESGGGLVQAGGSLRLSCAASGFTFDPYAMGWYRQAPGKERELVAAISFSGGSTSYADSVKGRFTISRDNAKNTVYLQMNSLKPEDTAVYYCAAYSWLYEGYEYWGLGTQVTVSS	high polyreactivity
QVQLVESGGGLVQAGGSLRLSCAASGSIFVTNAMGWYRQAPGKERELVAAISGGADSTYADSVKGRFTISRDNAKNTVYLQMNSLKPEDTAVYYCAAKVRGWHYYYCGQGTQVTVSS	low polyreactivity
QVQLVESWGGLVQAGGSLRLSCAASGSTFGKYFMGWYRQAHGKERELVAAISLSGGSTYYADSVKGRFTISRDKAKNTVYLQMNSLKPEDTAVYYCATVGYGYDYWGQGNQVTVSS	high polyreactivity
QVQLVESGGGLVQAGGSLRLSCAASGFIIYGYVMGWYRQAPGKERELVAAINSSSGRTYYADSVKGRFTISRDNAKNTVYLQMKSLKPEDTAVYYCAAYYYGSYDGTPYDYWGQGTQVTVSS	low polyreactivity
QVQLVESGGGLVQAGGSLRLSCAASGSTFDANTMGWYRQAPGKERELVAAISSNGGRTYYADSVKGRFTISRDNAKNTVYLLMNSLKPEDTAVYYCAASSYYRYRETYDYWGLGTQVTVSS	high polyreactivity
QVQLVESGGGLVQAGGSLRLSCAASGLIFYGNAMGWYREAPGKERELVAAISRRGGRTYYADSVKGRFTISRDNAKKSVYLQMHSLKPEDTAVYYCAAGVPKNGQAGYDYWGQGTQVTVSS	high polyreactivity
QVHLVVSWGGLVQAGGSLRLSCSASGITFKRYAMGWYRQSRGNERELVAAINWNGCGTYYADSVKGRFTISRDNAKNTVYLQMNSLKPEDTAVYYCAAGLAYWYWRGYDYWGQGTQVTVSS	high polyreactivity
QVQLVESGGGLVQAGGSLRLSCAASGSIFDFYAMGWYRQAPGKERELVAAISGSGGSTYYADSVKGRFTISRDNAKNTVYLQMNSLKPEDTAVYYCSYYYWGQGTQVTVSS	low polyreactivity
QVQLVESGGGLVQAGGSLRLSCAASGFIFFLYAMGWYRQAPGKERELVARISGGGDSTSYADSVKGRFTISRDNAKNTVYLQMNSLKPEDTAVYYCAADVWGSGGELGYWGQGTQVTVSS	low polyreactivity
QVQLVESGAGLVQAGGSLRLSCAASGYTFSPNDMGWYRQAPGKERELVAAITSSVGSTYYADSVKGRFTISRDNAKNTVYLQMNSLKPEDTAVYYCNKQDSSYYISGGGDYDYWGQGTQVTVSS	low polyreactivity
QVQLVESGGGLVQAGGSLRLICAASGFTFYRYAMGWYRQAPGKERELVASITRSGGSTSYADSVKGRFTISRDNAKNSVYLQMNRLKPEDTAVFYCAAVTTQYLFSVPYYYWGQGTQVTVSS	high polyreactivity
QVQLVESGGGLVQAGGSLRLSCAASGFILYDYAMGWYRQAPGKEREFVAAISWSGGRTYYADSVKGRFTISRDNAKNTVYLLLNSLNPEASAVYYCAVDAYRYWWTTYVSDFDYWGQGTQLTVSS	high polyreactivity
QVQLVESGGGLVQAGGSLRLSCAASGRTFGPYAMGWYRQAPGKERELVAVISGRGTSTYYADSVKGRFTISRDNAKNTVYLQMNSMKPEDTAVYYCNADYGSWYWGFDYWGQGTQVTVSS	low polyreactivity

Sequence	polyreactivity (PSR sort gate)
QVQLVESGGGLVQAGGSLRLSCAASGFIFFYAMGWYRQAPGKERELVASIDSGVSTDYADSVKGRFTISRDNAKNTVYLQMNSLTPEDTAVYYCAADPWSSLNYDYWGQGTQVTVSS	low polyreactivity
QVQLVESGGGLVQARGSLRLSCAASVSTFGGNAMGWYRQAPGKERQLVAAISCIGGGTYYADSVKGRFTISRDNAKNTVYLQMKSLKPEYTAVYYCAAKIFIRVHYYSYRMYYWGQGTQLTVSS	low polyreactivity
QVQLVESGGGLVQAGGSLRLSCAASGSIFGPYAMGWYRQAPGKERELVATITSGGRTYYADSVKGRFTISRDNAKNTVYLQLNSLKPEDTAVYYCAAAGKGRYHFRSTMDYWGQGTQVTVSS	high polyreactivity
QVQLVESGGGLVQAGGSLRLSCAASGFIFSVNTMGWYRQAPGKERELVAAISGSGGSTYYADSVKGRFTISRDNAKNTVYLQMNSLKPEDTAVYYCAAGVAWRFYSWGQGTQVTVSS	high polyreactivity
QVQLVESGGGLVQAGGSLRLSCAASGSTFRQYAMGWYRQAPGKERELVAGISYRGGRTYYADSVKGRFTISRDNAKNTVYLHMNSLKPEDTAVYYCNALRHYRDISVDGDDYWGQGTQVTVSS	high polyreactivity
QVQLVESGGGLVQAGGRLRLSCAASGLTFKRYAMGWYRQAPGKERELVASITGNGGSTYYADSVKGRFTISRDNAKNTVYLQINSLKPEDTAVYYCNARRYVRTSQQPLYFYWGQGTQVTVSS	high polyreactivity
QVQLVESGGGLVQAGGSLRLSCAASGFTFGYNTMGWYRQAPGKERELVATITSGGSTYYADSVKGRFTISRDNAKNTDYLQMNSLKPEDTAVYYCAATAGSPWAKSRYGYWGQGTQVTVSS	low polyreactivity
QVQLVESGGGLVEAGGSLRLSCAASGRIFLSYAMGWYRQAPGKERELVATITDRGGRTYYADSVKGRFTISRDNAKNTVYLQMNSLKAEDTAVDYCAAGLVYRGYRRDYWGQGTQVTVTS	low polyreactivity
QVQLEESGGGLVQAGGSLRLSCAASGRIFYGYAMGWSRQAPGKERELVASISRRGSSTYYADSVKGRFTISRDNAKNTVYLQMNSLKPEDTAVYYCAAGYYPFNYWGQGTQVTVSS	high polyreactivity
QVQLVESGGGLVQAGGSLRLSCAASGRTFFPYGMGWYRQAPGKERELVASISYSGGITYYADSVKGRFTISRDNAKNTVYLQMNSLKPEDTAVYYCSVRTIWRFRYDYWGQGTQVTVSS	high polyreactivity
QVQLVESWGGLVQAGGSLRLSCAAYGIIFKYYAMGWYRQAPGKERELVAVITSNGARTYYADSVKGRFTISRDNAKNTVYLQMNSLKPEDTAVYYCNAYRLSVSVGYDYCGQGTQVTVSS	high polyreactivity
QVQLVESGGGLFQAGGSLRLSFAASGIIFPYNLMGWYRQAPGKERELVAAITRGAASTYYADSVKGRFTISRDHEKNTVYLQMNSLKPEDTAVYFCNADGTWRTYNFWGQGTQVTVSS	high polyreactivity
QVQLVESGGGIVQAGGSLRLSCAASGRTFYGNAMGWYIQEPGKERELVAGISQNGGSTYYADSVKGRFTSSRDTAKNTVYLQMNRLKPEDSAVYYCAADSYYFTGYWAHPYDYWGEGTQVTVSS	high polyreactivity
QDQHEESGGGLVQAGGSLRLICAASGLIFPRYAMGWYRPAPGKERELVAAITRGGSTYYADSVKGRFTISRDNAKNTVYLQMNSLKPEDTAVYYCNAELPVHWSWYDYWGQGTQVTVSS	low polyreactivity
QVQLVDSGGGSVQAGGSLRLSCAASGSTFYENAMGWYREAPGKETELVAASTWSGGRTYYADSVKGRFTISRDNAKNTVYLQMYSLKPEDTAVYYCNARARSRKFYYWGQGTQVTVSS	high polyreactivity
QVQLVASGGGLVQSGGSLRLSCAASGSTITWYAMGWYRQAPGKDRELVARISSGDRPNYADSVKGRFTISRDNAKNTVYLQMNSLKPEDTAVYYCNADYGQPSYYDDGDYWGQGTQVTVSS	low polyreactivity
QVQLVESGGGLVQAGGSLRLSCAASGRTFVGYTMGWYRQAPGKERELVAAIDLSDGSTSYADSVKGRFTISRDNAKNTVYFQMNSLKPEDTAVYYCAKTWANVYAGAHDYWGQGTQVTVSS	low polyreactivity
QVQLVESGGGLVQAGGSLRLSCAASGSTFAVNAMGWYRQAPGKERELVAAISGSGGRTYYADSVKGRFTISRDNAKNTVYLQMNSLKPEETAFYYCATELRAPYRSSGAYHYDYWGQGTQVTVSS	low polyreactivity
QVQLVESGGGLVQAGGSLRLSCAASGRIFRYYAMGWYRQAPGKERELVATISRSGGSTFYADSVKGRFTISRDNGKNPVYLQMNSLKPEDSAVYYCNARYQTGCYGYWGQGTQVTVSS	high polyreactivity
QVQLVESGGGLVQAGGSLRLSCAASGSIFYRYAMGWYRQAPGKVRELVAAISSGSSTHYADSVKGRFTISRDNAKNTVYLQMNSLKPEDTAVYYCAARYRAYTSTRRFDYWGQGTQVTVSS	high polyreactivity
QVQLVESGGGLVQAGGSLRLRCAAYGSIFDKNSMGWYRQAPGKERELVAAITRSGRSTYYADSVKGRFTISRDNAKNTVYLQMNSLKPEDTALYYCAADVWPRWGLYYWGQGTQVTVTS	high polyreactivity
